The record followed here is US20030068675, “Position dependent recognition of GNN nucleotide triplets by zinc fingers” (published 2003).

What all share (test): EMSA
Conditions in all cases: tags: MBP fusion
A general note: A gel shift assay detects complexes by their altered migration in electrophoresis.

The target in data set [1] is T1, ZFP SBS#1436 (synthetic, UniProt P08047).
T1 chain: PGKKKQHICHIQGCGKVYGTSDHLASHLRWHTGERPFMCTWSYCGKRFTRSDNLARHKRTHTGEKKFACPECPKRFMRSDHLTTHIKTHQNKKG
An outline of the steps:
(§1)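 Purified ZFP was titrated against labeled double-stranded target (1 nM or lower, at least 10-fold below expected Kd) carrying the natural binding site with flanks. Binding buffer was 10 mM Tris pH 7.5, 100 mM KCl, 1 mM MgCl2, 0.1 mM ZnCl2, 5 mM DTT, 10% glycerol, 0.02% BSA, with equilibration for at least 45 min. Bound and free target were separated on a 10% polyacrylamide gel.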

Data set [2] concerns the target T2, ZFP SBS#1399 (synthetic, UniProt P08047).
T2 chain: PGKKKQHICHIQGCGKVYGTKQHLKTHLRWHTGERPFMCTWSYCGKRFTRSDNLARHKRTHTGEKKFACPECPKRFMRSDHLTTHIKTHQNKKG
The method in brief:
as §1

Data set [3] has as its target T3, ZFP SBS#1412 (synthetic).
T3 chain: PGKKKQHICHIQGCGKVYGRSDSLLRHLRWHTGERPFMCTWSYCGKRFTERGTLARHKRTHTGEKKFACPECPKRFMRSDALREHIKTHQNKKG
An outline of the steps:
as §1

Data set [4] addresses T4, ZFP SBS#1434 (synthetic).
T4 chain: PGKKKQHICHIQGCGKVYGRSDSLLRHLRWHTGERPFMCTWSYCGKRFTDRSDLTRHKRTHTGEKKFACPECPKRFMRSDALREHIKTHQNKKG
The method in brief: as §1

In data set [5] the target is ZFP SBS#1439 (synthetic). The method in brief: as §1
In data set [6] the target is ZFP SBS#1440 (synthetic). The method in brief: as §1
Data set [7] concerns the target T5, ZFP SBS#1417 (synthetic).
T5 chain: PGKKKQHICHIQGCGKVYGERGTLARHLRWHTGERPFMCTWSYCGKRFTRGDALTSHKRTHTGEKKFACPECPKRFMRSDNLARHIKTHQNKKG
The method in brief: as §1

In data set [8] the target is T6, ZFP SBS#1401 (synthetic).
T6 chain: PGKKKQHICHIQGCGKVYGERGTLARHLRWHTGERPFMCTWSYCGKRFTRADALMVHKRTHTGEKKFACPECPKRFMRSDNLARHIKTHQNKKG
An outline of the steps:
as §1

For data set [9], the target named is T7, ZFP SBS#1432 (synthetic).
T7 chain: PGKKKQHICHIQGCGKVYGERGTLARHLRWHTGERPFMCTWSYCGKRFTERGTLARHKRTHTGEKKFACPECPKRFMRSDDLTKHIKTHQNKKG
The method in brief:
as §1

The target of data set [10] is T8, ZFP SBS#1431 (synthetic).
T8 chain: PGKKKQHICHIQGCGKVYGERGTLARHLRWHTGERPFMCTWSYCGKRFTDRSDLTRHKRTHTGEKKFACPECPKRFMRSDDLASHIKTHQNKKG
An outline of the steps: as §1

Data set [11] deals with T9, ZFP SBS#1430 (synthetic).
T9 chain: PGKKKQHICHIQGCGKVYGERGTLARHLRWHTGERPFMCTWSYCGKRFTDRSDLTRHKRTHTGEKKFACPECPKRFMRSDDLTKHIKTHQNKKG
An outline of the steps: as §1

Data set [12] addresses T10, ZFP SBS#1427 (synthetic).
T10 chain: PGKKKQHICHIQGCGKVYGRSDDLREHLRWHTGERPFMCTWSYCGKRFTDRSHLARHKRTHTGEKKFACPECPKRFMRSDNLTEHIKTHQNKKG
An outline of the steps:
as §1

For data set [13], the target named is T11, ZFP SBS#1424 (synthetic).
T11 chain: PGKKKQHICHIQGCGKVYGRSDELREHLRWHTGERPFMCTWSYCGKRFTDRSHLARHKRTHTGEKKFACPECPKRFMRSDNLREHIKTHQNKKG
The method in brief: as §1

Data set [14] deals with T12, ZFP SBS#1435 (synthetic).
T12 chain: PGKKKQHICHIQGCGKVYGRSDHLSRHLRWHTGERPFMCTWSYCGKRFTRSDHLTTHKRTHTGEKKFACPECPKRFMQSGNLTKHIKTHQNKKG
The method in brief:
as §1

Data set [15] concerns the target T13, ZFP SBS#1398 (synthetic).
T13 chain: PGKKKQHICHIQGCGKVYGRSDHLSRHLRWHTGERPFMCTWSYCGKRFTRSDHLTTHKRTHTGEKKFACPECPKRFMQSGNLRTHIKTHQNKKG
An outline of the steps:
as §1

Data set [16] concerns the target T14, ZFP SBS#1413 (synthetic).
T14 chain: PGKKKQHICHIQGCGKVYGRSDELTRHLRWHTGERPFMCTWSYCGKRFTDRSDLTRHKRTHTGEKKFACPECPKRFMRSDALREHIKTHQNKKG
The method in brief:
as §1

Data set [17] deals with T15, ZFP SBS#1414 (synthetic).
T15 chain: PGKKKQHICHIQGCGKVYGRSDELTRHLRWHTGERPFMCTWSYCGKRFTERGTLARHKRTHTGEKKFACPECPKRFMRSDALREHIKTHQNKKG
The method in brief:
as §1

Data set [18] has as its target T16, ZFP SBS#1418 (synthetic).
T16 chain: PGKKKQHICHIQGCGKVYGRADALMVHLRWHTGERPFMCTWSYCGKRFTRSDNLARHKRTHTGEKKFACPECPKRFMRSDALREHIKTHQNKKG
The method in brief: as §1

Data set [19] addresses T17, ZFP SBS#1402 (synthetic).
T17 chain: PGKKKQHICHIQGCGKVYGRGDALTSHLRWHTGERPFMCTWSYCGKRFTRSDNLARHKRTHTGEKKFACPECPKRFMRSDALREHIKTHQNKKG
The method in brief:
as §1

Data set [20] has as its target ZFP SBS#1443 (synthetic). An outline of the steps:
as §1

Data set [21] addresses ZFP SBS#1444 (synthetic). The method in brief: as §1
Data set [22] concerns the target ZFP SBS#1446 (synthetic). The method in brief:
as §1

The target in data set [23] is T18, ZFP SBS#1445 (synthetic).
T18 chain: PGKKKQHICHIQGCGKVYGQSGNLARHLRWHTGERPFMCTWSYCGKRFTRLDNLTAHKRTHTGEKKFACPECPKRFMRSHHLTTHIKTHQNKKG
The method in brief: as §1

Data set [24] concerns the target ZFP SBS#1411 (synthetic). An outline of the steps: as §1
The target of data set [25] is ZFP SBS#1428 (synthetic). An outline of the steps:
as §1

In data set [26] the target is ZFP SBS#1429 (synthetic). The method in brief:
as §1

The target of data set [27] is T19, ZFP SBS#1423 (synthetic).
T19 chain: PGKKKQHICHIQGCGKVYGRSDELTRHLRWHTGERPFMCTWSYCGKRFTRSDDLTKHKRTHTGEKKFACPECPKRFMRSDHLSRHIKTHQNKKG
An outline of the steps:
as §1

For data set [28], the target named is T20, ZFP SBS#1422 (synthetic).
T20 chain: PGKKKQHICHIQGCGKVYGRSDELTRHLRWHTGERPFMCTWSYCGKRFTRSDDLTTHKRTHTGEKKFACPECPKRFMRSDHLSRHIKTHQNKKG
An outline of the steps:
as §1

Data set [29] deals with ZFP SBS#1441 (synthetic). An outline of the steps: as §1
Data set [30] concerns the target T21, ZFP SBS#1442 (synthetic).
T21 chain: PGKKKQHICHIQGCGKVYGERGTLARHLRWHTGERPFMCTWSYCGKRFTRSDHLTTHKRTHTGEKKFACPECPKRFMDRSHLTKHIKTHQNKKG
The method in brief: as §1

The target of data set [31] is T22, ZFP SBS#1410 (synthetic, UniProt P08047).
T22 chain: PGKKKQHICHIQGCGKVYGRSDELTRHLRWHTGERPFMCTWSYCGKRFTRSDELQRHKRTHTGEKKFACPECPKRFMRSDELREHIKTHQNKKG
An outline of the steps: as §1

In data set [32] the target is T23, ZFP SBS#1416 (synthetic).
T23 chain: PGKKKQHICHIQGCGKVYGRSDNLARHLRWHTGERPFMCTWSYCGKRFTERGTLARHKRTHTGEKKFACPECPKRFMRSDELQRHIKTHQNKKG
An outline of the steps:
as §1

The target of data set [33] is T24, ZFP SBS#1415 (synthetic).
T24 chain: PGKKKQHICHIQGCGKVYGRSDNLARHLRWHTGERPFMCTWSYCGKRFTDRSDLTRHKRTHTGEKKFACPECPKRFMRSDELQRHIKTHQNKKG
An outline of the steps:
as §1

Sequence of ZFP SBS#1446 (synthetic) (chain, as listed by the source): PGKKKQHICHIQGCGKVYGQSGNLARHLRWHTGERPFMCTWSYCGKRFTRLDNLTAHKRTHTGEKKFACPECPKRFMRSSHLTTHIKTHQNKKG
Sequence of ZFP SBS#1440 (synthetic) (chain, as listed by the source): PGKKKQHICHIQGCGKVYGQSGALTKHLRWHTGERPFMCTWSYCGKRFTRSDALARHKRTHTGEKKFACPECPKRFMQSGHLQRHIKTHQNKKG
Sequence of ZFP SBS#1444 (synthetic) (chain, as listed by the source): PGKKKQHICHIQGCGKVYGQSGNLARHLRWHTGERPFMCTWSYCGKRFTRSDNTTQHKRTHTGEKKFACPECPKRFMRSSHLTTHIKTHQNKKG
Sequence of ZFP SBS#1441 (synthetic) (chain, as listed by the source): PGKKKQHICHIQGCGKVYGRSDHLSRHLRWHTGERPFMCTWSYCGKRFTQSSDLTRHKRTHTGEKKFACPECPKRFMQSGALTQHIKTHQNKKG
Sequence of ZFP SBS#1439 (synthetic) (chain, as listed by the source): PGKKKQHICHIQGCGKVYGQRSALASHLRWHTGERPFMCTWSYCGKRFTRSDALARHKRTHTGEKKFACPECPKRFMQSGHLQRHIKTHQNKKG

B1: TGGGAGTGT (dsDNA)
DNA 1: TGGGAGTGT
DNA 2: ACACTCCCA
B1: the dissociation constant Kd was 0.026 nM in [1] and 0.1 nM in [2].

B2: CTGGCCGTG (dsDNA)
DNA 1: CTGGCCGTG
DNA 2: CACGGCCAG
As for B2, the Kd worked out at 0.172 nM in data set [3] and 0.051 nM in [4].

B3: GGAGTGTTA (dsDNA)
DNA 1: GGAGTGTTA
DNA 2: TAACACTCC
Consider B3, for which the dissociation constant (Kd) came to 0.075 nM in [5] and 0.035 nM in [6].

B4: GAGTTGGCC (dsDNA)
DNA 1: GAGTTGGCC
DNA 2: GGCCAACTC
Take B4: the values for the Kd in [7] and in data set [8] were 1.4 nM and 0.167 nM, respectively.

B5: TCGGCCGCC (dsDNA)
DNA 1: TCGGCCGCC
DNA 2: GGCGGCCGA
For B5, the Kd in data set [9] came out at 1.78 nM; in data set [10], 6.17 nM; in [11], 0.352 nM.

B6: CAGGGCCCG (dsDNA)
DNA 1: CAGGGCCCG
DNA 2: CGGGCCCTG
B6: the dissociation constant Kd in data set [12] was determined as 0.271 nM; in [13], 1.37 nM.

B7: TAATGGGGG (dsDNA)
DNA 1: TAATGGGGG
DNA 2: CCCCCATTA
Regarding B7, the Kd amounted to 0.057 nM in data set [14] and 0.065 nM in [15].

B8: CTGGCCGCG (dsDNA)
DNA 1: CTGGCCGCG
DNA 2: CGCGGCCAG
For B8, the Kd amounted to 0.152 nM in data set [16] and 0.914 nM in data set [17].

B9: CTGGAGTTG (dsDNA)
DNA 1: CTGGAGTTG
DNA 2: CAACTCCAG
For the molecule B9, the dissociation constant Kd in data set [18] came to 0.241 nM; in [19], 0.15 nM.

B10: TGGAAGGAA (dsDNA)
DNA 1: TGGAAGGAA
DNA 2: TTCCTTCCA
Regarding B10, the Kd in data set [20] came out at 0.22 nM; in [21] it was 0.09 nM; in data set [22] it was 0.42 nM; in [23], 0.182 nM.

B11: TGAGGCGAG (dsDNA)
DNA 1: TGAGGCGAG
DNA 2: CTCGCCTCA
In the case of B11, the values for the Kd in data set [24], in data set [25] and in data set [26] were 0.282 nM, 0.102 nM and 0.074 nM, respectively.

B12: GGGTCGGCG (dsDNA)
DNA 1: GGGTCGGCG
DNA 2: CGCCGACCC
Turning to B12, the Kd stood at 0.034 nM in data set [27] and 0.064 nM in data set [28].

B13: ATAGCTGGG (dsDNA)
DNA 1: ATAGCTGGG
DNA 2: CCCAGCTAT
For the molecule B13, the Kd in data set [29] was 0.262 nM.

B14: TGCTGGGCC (dsDNA)
DNA 1: TGCTGGGCC
DNA 2: GGCCCAGCA
The molecule B14 came in with an equilibrium dissociation constant (Kd) in [30] of 0.36 nM.

B15: CCGGCGGCG (dsDNA)
DNA 1: CCGGCGGCG
DNA 2: CGCCGCCGG
For B15, the Kd in data set [31] was 0.814 nM.

B16: GCGGCCGAG (dsDNA)
DNA 1: GCGGCCGAG
DNA 2: CTCGGCCGC
With B16, the dissociation constant (Kd) in data set [32] came out at 0.153 nM; in data set [33] it was 0.102 nM.

Usually Kd stands for the concentration at which binding is half-saturated. A low value points to a tighter complex.
